Measurements published in patent US20240116985A1 (published 2024).
Each block holds one binder with its values, some of them ahead of it. Starred links: 1 amine or outer side, 2 acyl side, 3 side chain; linkers in the order of their positions; H or OH if unused. Positions of bridges follow the written chain, without caps; N, C: chain ends. Non-standard residues stand in square brackets, D forms with d. Primed or numbered codes have the meaning given here. (Me2NPrPip)GlnR = (S)-2-amino-5-(4-(3-(dimethylamino)propyl)piperazin-1-yl)-5-oxopentanoic acid, CN(C)CCCN1CCN(C(=O)CC[C@H](N[*:1])C(=O)[*:2])CC1; PyrS2″ = (S)-3-amino-1-((pent-4-en-1-yloxy)carbonyl)pyrrolidine-3-carboxylic acid (stapling residue), C=CCCCOC(=O)N1CC[C@@](N[*:1])(C(=O)[*:2])C1; (RDMAPyr)GlnR = (S)-2-amino-5-((R)-3-(dimethylamino)pyrrolidin-1-yl)-5-oxopentanoic acid, CN(C)[C@@H]1CCN(C(=O)CC[C@H](N[*:1])C(=O)[*:2])C1; B5(4) = 2,2-bis(4-pentenyl)glycine = 2-amino-2-(pent-4-en-1-yl)hept-6-enoic acid (stitching residue), C=CCCCC(CCCC=C)(N[*:1])C(=O)[*:2]; TfeGA = (S)-2-amino-3-((carboxymethyl)(2,2,2-trifluoroethyl)amino)propanoic acid, O=C([C@H](CN(CC(=O)[*:3])CC(F)(F)F)N[*:1])[*:2]; PyrS2 = (S)-3-amino-1-((pent-4-en-1-yloxy)carbonyl)pyrrolidine-3-carboxylic acid, C=CCCCOC(=O)N1CC[C@@](N[*:1])(C(=O)[*:2])C1; (EtSSPh)GluE = (S)-2-amino-5-oxo-5-(2-(phenyldisulfaneyl)ethoxy)pentanoic acid, O=C(CC[C@H](N[*:1])C(=O)[*:2])OCCSSc1ccccc1; (EtSSPh)AspE = (S)-2-amino-4-oxo-4-(2-(phenyldisulfaneyl)ethoxy)butanoic acid, O=C(C[C@H](N[*:1])C(=O)[*:2])OCCSSc1ccccc1; (EtSSHex)AspE = (S)-2-amino-4-(2-(hexyldisulfaneyl)ethoxy)-4-oxobutanoic acid, CCCCCCSSCCOC(=O)C[C@H](N[*:1])C(=O)[*:2]; B5(27) = 2-amino-2-(pent-4-en-1-yl)hept-6-enoic acid (two alkene side-chain arms), C=CCCCC(CCCC=C)(N[*:1])C(=O)[*:2]; B5(19) = 2-amino-2-(pent-4-en-1-yl)hept-6-enoic acid (bis(4-pentenyl)glycine), C=CCCCC(CCCC=C)(N[*:1])C(=O)[*:2]; (Ppz)GlnR = (S)-2-amino-5-oxo-5-(piperazin-1-yl)pentanoic acid, O=C(CC[C@H](N[*:1])C(=O)[*:2])N1CCN([*:3])CC1; (Morph)GlnR = (S)-2-amino-5-morpholino-5-oxopentanoic acid, O=C(CC[C@H](N[*:1])C(=O)[*:2])N1CCOCC1; Nva(5-morpholino) = N[C@@H](CCCN1CCOCC1)C(=O)O; Bta = N[C@@H](Cc1csc2ccccc12)C(=O)O; αAllylPro = C=CC[C@@]1(C(=O)O)CCCN1; tBuAla = CC(C)(C)C[C@H](N)C(=O)O; 3Thi = N[C@@H](Cc1ccsc1)C(=O)O

Tests used:
[1] = target: T1, B-cat-Halo (beta-catenin HaloTag NanoBRET construct expressed in HEK293 cells) (UniProt P35222 1-781); experiment: cell-based or functional assay
T1 sequence (looked up): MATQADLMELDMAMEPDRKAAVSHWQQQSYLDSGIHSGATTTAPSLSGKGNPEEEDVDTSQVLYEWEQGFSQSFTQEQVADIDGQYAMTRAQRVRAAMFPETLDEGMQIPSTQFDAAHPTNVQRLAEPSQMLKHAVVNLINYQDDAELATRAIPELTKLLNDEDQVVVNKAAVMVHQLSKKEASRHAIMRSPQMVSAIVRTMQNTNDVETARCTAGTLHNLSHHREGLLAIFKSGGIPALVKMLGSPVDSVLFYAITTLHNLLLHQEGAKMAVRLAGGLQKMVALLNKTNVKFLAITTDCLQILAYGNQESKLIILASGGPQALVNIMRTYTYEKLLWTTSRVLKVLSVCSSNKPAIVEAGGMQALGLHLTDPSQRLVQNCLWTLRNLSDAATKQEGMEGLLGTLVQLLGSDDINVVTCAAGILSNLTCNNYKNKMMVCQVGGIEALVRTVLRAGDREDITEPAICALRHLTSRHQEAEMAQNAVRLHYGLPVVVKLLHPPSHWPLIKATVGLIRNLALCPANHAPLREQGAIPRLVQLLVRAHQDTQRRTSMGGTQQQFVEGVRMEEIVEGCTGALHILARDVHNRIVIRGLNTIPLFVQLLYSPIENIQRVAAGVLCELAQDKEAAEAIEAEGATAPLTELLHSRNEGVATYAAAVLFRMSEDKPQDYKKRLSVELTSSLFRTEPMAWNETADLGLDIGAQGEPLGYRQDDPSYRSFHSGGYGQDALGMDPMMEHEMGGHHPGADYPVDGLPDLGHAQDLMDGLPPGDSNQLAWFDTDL

[2] = target: T2, full-length beta-Catenin (Uniprot ID P35222) (Homo sapiens (Human), UniProt P35222 1-781); experiment: AlphaScreen competition vs biotin-TCF4(10-53) on full-length beta-catenin
T2 construct: the AlphaScreen used a Histidine (Nickel Chelate) detection kit, so a His tag is likely but not described; also called B-Catenin; bCat
T2 sequence: T1 sequence (looked up)
Procedure, shortened: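 Titrated peptide was preincubated 15 minutes at 20° C, then donor and acceptor beads were added for 60 minutes at 20° C protected from light. Reads were done in duplicate, and data were fitted to a 1:1 binding model with Hill slope; concentrations are final.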

[3] = target: T3, B-cat-Halo (beta-catenin HaloTag fusion expressed in HEK293 cells) (UniProt P35222 1-781, HaloTag labelled with HaloTag NanoBRET 618 Ligand); experiment: cell-based or functional assay
T3 sequence (looked up): T1 sequence (looked up)

B1: I-314 (peptide)
peptide: XHAXDEAAFVXFWQ
modifications: not fully specified; N-terminal acetyl (Ac); C-terminal amide (NH2); PL3 at 1, B5 at 4, S8 at 11; stapled PL3-B5 and B5-S8
notes: Ac-PL3-His-Ala-B5-Asp-Glu-Ala-Ala-Phe-Val-S8-Phe-Trp-Gln-NH2; stapled peptide composition
EC50 [2]: ≥ 10 µM

B2: I-315 (peptide)
peptide: XHAXDEAAFVXFWQ
modifications: not fully specified; N-terminal acetyl (Ac); C-terminal amide (NH2); PL3 at 1, B5 at 4, S8 at 11; stapled PL3-B5 and B5-S8
notes: as for B1
EC50 [2]: 9.9 µM

B3: I-310 (peptide)
peptide: XDAXDDAAFVXFWQ
modifications: not fully specified; N-terminal acetyl (Ac); C-terminal amide (NH2); PL3 at 1, B5 at 4, S8 at 11, 3ClF (printed 3C1F) at 12; stapled PL3-B5 and B5-S8
notes: Ac-PL3-Asp-Ala-B5-Asp-Asp-Ala-Ala-Phe-Val-S8-3C1F-Trp-Gln-NH2; stapled peptide composition
EC50 [2]: 3.24 µM

B4: I-311 (peptide)
peptide: XDAXDDAAFVXFWQ
modifications: not fully specified; N-terminal acetyl (Ac); C-terminal amide (NH2); PL3 at 1, B5 at 4, S8 at 11, 3ClF (printed 3C1F) at 12; stapled PL3-B5 and B5-S8
notes: as for B3
EC50 [2]: 1.24 µM

Binder: Ac-[αAllylPro]D[tBuAla][B5(27)]DDAAFL[PyrS2][3Thi][Bta]V-NH2 (staple 1-4, 4-11) [I-1495]
NanoBRET Abs IC50 [3]: 23.9 µM

Binder: Ac-[αAllylPro]D[tBuAla][B5(27)]DDAAFL[PyrS2][3Thi][Bta]T-NH2 (staple 1-4, 4-11) [I-1494]
NanoBRET Abs IC50 [3]: 14.7 µM

B5: I-319 (peptide)
peptide: XDAXDDAAFVXFWQ
modifications: not fully specified; N-terminal acetyl (Ac); C-terminal amide (NH2); PL3 at 1, B5 at 4, S8 at 11, 2FF at 12; stapled PL3-B5 and B5-S8
notes: Ac-PL3-Asp-Ala-B5-Asp-Asp-Ala-Ala-Phe-Val-S8-2FF-Trp-Gln-NH2; stapled peptide composition
EC50 [2]: 0.054 µM

Results, then the binder that gave them:

NanoBRET Abs IC50 [1]: 20.7 µM
Binder: Ac-[αAllylPro]D[tBuAla][B5(19)]D[TfeGA]AAF[(RDMAPyr)GlnR][PyrS2″][3Thi][Bta]Q-NH2 (staple 1-4, 4-11) [I-1939]

NanoBRET Abs IC50 [1]: > 20 µM
Binder: Ac-[αAllylPro]D[tBuAla][B5(4)][(EtSSPh)AspE]DAAFL[PyrS2″][3Thi][Bta]Q-NH2 (staple 1-4, 4-11; also: isomer composition, earlier eluting HPLC peak) [I-1954]

NanoBRET Abs IC50 [1]: 15.7 µM
Binder: Ac-[αAllylPro]D[tBuAla][B5(19)]D[TfeGA]AAF[(Me2NPrPip)GlnR][PyrS2″][3Thi][Bta]Q-NH2 (staple 1-4, 4-11) [I-1936]

NanoBRET Abs IC50 [1]: > 20 µM
Binder: Ac-[αAllylPro][(EtSSPh)AspE][tBuAla][B5(4)]DDAAFL[PyrS2″][3Thi][Bta]Q-NH2 (staple 1-4, 4-11; also: isomer composition, earlier eluting HPLC peak) [I-1952]

NanoBRET Abs IC50 [3]: 4.7 µM
Binder: Ac-[αAllylPro]D[tBuAla][B5(27)]DDAAFL[PyrS2][3Thi][Bta][dQ]-NH2 (staple 1-4, 4-11) [I-1500]

NanoBRET Abs IC50 [1]: > 20 µM
Binder: Ac-[αAllylPro]D[tBuAla][B5(4)]D[(EtSSHex)AspE]AAFL[PyrS2″][3Thi][Bta]Q-NH2 (staple 1-4, 4-11) [I-1962]

NanoBRET Abs IC50 [1]: 12.9 µM
Binder: Ac-[αAllylPro]D[tBuAla][B5(19)]D[TfeGA]AAF[(Ppz)GlnR][PyrS2″][3Thi][Bta]Q-NH2 (staple 1-4, 4-11) [I-1941]

NanoBRET Abs IC50 [1]: > 20 µM
Binder: Ac-[αAllylPro]D[tBuAla][B5(4)]D[(EtSSPh)GluE]AAFL[PyrS2″][3Thi][Bta]Q-NH2 (staple 1-4, 4-11; also: isomer composition, later eluting HPLC peak) [I-1958]

NanoBRET Abs IC50 [1]: 3.8 µM
Binder: Ac-[αAllylPro]D[tBuAla][B5(4)]D[TfeGA]AAF[(Morph)GlnR][PyrS2″][3Thi][Bta]Q-NH2 (staple 1-4, 4-11) [I-1943]

NanoBRET Abs IC50 [1]: > 20 µM
Binder: Ac-[αAllylPro][(EtSSHex)AspE][tBuAla][B5(4)]DDAAFL[PyrS2″][3Thi][Bta]Q-NH2 (staple 1-4, 4-11; also: isomer composition, earlier eluting HPLC peak) [I-1959]

NanoBRET Abs IC50 [3]: > 20 µM
Binder: Ac-[αAllylPro]D[tBuAla][B5(27)]DDA[Nva(5-morpholino)]FL[PyrS2][3Thi][Bta]Q-NH2 (staple 1-4, 4-11) [I-1501]
